According to US20030003502A1 (published 2003):

Biological target: T1, PhFc-Cε3/Cε41-222 (human, UniProt P01854 211-427, N-linked carbohydrate attached at N394 (NAG/MAN residues 694-699 in Table 1))
T1 construct: Fc fragment of human IgE (Cε3 and Cε4 domains); It is a dimer of two identical chains with an interchain disulfide near residue 329; Produced in Trichoplusia ni (Hi-5) insect cells; also called human IgE-Fc Cε3/Cε4 domains; IgE-Fc
Assay: complex formation and co-crystallization, crystal form I
Experimental: The structure was determined by molecular replacement techniques as described in Methods. Manual model building was done with the program O¹⁸ and refinement carried out with CNS¹⁹. Current refinement statistics for the complex are shown in Table 3, with an overall R-free of 29.3% and R-cryst of 27.0% to 3.25 Å.
Human IgE-Fc Cε3/Cε4 domains and a carbohydrate mutant of the FcεRIα¹¹ were expressed in insect cells essentially as described for IgE-Fc Cε3/Cε4 in 60/189,403. Complexes of wt-Fc-Cε3/Cε4 and wt-FcεRIα produced only poorly diffracting crystals. Since the receptor is heavily glycosylated (˜33% carbohydrate by weight), and the carbohydrate sites are dispersed on the receptor surface, a subset of these attachment sites was removed to improve the protein crystallization. A previously-described carbohydrate mutant of the receptor¹⁷ lacking three of the seven wild type carbohydrate sites (residues 74, 135, and 140) located on both D1 and D2 in the receptor structure. The triple receptor mutant, FcεRIαΔ4-6 was subcloned into the pvl1392 baculovirus transfer vector and recombinant virus produced. The mutant receptor was active, expressed well and was purified by affinity chromatography similarly to the wt protein. […]

T1 sequence (P01854 other isoform, or with tags, fused parts or gaps limits assumed): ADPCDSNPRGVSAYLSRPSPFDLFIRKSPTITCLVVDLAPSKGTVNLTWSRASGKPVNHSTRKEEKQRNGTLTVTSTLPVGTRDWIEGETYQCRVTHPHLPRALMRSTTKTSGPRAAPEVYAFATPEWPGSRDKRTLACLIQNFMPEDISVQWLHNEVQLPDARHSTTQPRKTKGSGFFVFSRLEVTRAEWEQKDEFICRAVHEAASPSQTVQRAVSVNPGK

B1: PhFcεRIα1-176 (receptor)
chain: VPQKPKVSLNPPWNRIFKGENVTLTCNGNNFFEVSSTKWFHNGSLSEETNSSLNIVNAKFEDSGEYKCQHQQVNESEPVYLEVFSDWLLLQASAEVVMEGQPLFLRCHGWRNWDVYKVIYYKDGEALKYWYENHNISITNATVEDSGTYYCTGKVWQLDYESEPLNITVIKAPREK
modifications: N-linked carbohydrate (seven native attachment sites; about 33% carbohydrate by weight)
notes: also called hFcεRIα1-176 protein; wild type (wt) FcεRIα
- binding result: binds
